# System: Fer (mouse)
# Assay: phosphorylation enrichment, bacterial display (enrichment ratio); higher = better substrate or ligand; peptides without Tyr show the background
# 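Also: 11-residue human phosphosite peptides and single-mutation variants displayed on the E. coli surface, counted by deep sequencing, each peptide's frequency after selection divided by its frequency in the unselected input library; frequency after pTyr selection over input frequency; kinase dosed for 20-30% of maximal phosphorylation in three min.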
row,Sequence,phosphorylation enrichment
1,HDRGNYVQLNM [RECQL4_Y353_R355Q],0.674
2,QGIIIYRAAYF [SLC25A4_Y187],0.773
3,LKDEDYLKDTV [HAUS3_Y582_I586T],0.928
4,EGLKVYVNGTL [ADGRD1_Y183],0.491
5,PLRADYLIARV [HLCS_Y635],0.515
6,DRLASYLDKAR [KRT14_Y129_V133A],0.403
7,GRLPEYNTPIA [CCDC151_Y542_R545P],0.317
8,SSQILYKLEQS [THADA_Y701_V699I],0.423
9,EEKSCYILHSS [PATJ_Y783_E780K],0.622
10,LEDEVCAQKMK [TPM2_Y261_Y261C],1.01
11,TFLRTYTDTMQ [TSPAN7_Y124_A127T],0.501
12,SKKSTYRALLD [GANC_Y43_Q44R],0.358
13,QLHREYCLSPR [HJURP_Y445],0.765
14,TLNVRYESVQA [CEACAM7_Y236],0.59
15,SNKLHYQLEQE [PDPR_Y110_Y109H],0.498
16,GREAEYSEKHG [EPHB4_Y574_D576E],0.398
17,AEPTGYSAELS [EZR_Y499],0.535

row,Sequence,phosphorylation enrichment
1,VHSGTYQVTVR [MYBPC3_Y1043],0.435
2,PYAEPYADYGG [APBA1_Y187_S184A],0.861
3,ARTNEYKIIRS [INA_Y87_T92S],0.33
4,FFHCTYKQRMI [CLEC12A_Y242_K244Q_YF],0.513
5,HVIKFYGACSQ [RET_Y791_L790F],0.576
6,ANNPLYKEATS [ITGB3_Y773],0.228
7,KLKNAYEESLE [MYH7_Y1488],0.454
8,EFENSYIFDIN [GAB1_Y83],0.489
9,LQIPMYEVQWK [KIT_Y553_K550I],2.54
10,PELINYHQHYS [BTK_Y361_N365Y],0.427
11,WQQQSYLASGI [CTNNB1_Y30_D32A],0.442
12,CKLCQYYLDHL [ATRX_Y1849_Y1847C],0.423
13,HKLSYCEYDFE [BTK_Y40_Y40C],0.687
14,NELTYYCYKKD [CD59_Y87_C89Y],0.692
15,PVGDVYKKKGL [NMNAT1_Y55_A54V],0.487
16,DAANNYARGHF [TUBA3E_Y103_S101N_YF],0.431

# Target: EPHB2 (UniProt P29323)
# Assay: as above
# Chain of EPHB2 (P29323 whole entry, looked up): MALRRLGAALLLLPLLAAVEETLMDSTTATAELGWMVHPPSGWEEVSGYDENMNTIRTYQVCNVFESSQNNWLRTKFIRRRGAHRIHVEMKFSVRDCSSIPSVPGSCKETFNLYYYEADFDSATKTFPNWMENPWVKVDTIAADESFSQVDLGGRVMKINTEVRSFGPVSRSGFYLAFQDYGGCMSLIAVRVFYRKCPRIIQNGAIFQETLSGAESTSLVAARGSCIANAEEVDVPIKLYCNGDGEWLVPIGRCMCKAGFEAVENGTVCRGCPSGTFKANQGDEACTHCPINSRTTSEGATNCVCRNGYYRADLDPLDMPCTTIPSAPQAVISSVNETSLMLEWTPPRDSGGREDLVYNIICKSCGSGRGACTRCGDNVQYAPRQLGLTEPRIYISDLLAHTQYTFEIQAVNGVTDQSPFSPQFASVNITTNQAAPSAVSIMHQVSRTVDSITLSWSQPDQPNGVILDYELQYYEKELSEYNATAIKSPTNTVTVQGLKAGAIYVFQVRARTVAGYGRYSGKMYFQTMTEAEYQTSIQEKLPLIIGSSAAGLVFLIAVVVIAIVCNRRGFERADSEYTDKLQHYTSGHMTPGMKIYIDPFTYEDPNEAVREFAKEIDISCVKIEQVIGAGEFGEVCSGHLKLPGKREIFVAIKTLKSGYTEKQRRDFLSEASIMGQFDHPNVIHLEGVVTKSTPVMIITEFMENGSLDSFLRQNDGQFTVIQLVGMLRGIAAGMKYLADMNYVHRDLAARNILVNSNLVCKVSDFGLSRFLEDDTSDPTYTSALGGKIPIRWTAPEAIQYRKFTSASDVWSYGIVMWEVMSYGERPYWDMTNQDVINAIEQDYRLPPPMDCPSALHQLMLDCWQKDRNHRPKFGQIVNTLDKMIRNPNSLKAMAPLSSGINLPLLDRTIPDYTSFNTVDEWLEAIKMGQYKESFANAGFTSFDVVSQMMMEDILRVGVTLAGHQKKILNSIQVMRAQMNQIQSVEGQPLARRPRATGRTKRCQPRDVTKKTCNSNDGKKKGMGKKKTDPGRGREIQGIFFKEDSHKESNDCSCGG
row,Sequence,phosphorylation enrichment
1,HDRGNYVQLNM [RECQL4_Y353_R355Q],3.46
2,QGIIIYRAAYF [SLC25A4_Y187],0.767
3,LKDEDYLKDTV [HAUS3_Y582_I586T],1.67
4,EGLKVYVNGTL [ADGRD1_Y183],0.68
5,PLRADYLIARV [HLCS_Y635],0.487
6,DRLASYLDKAR [KRT14_Y129_V133A],0.324
7,GRLPEYNTPIA [CCDC151_Y542_R545P],0.432
8,SSQILYKLEQS [THADA_Y701_V699I],0.451
9,EEKSCYILHSS [PATJ_Y783_E780K],0.647
10,LEDEVCAQKMK [TPM2_Y261_Y261C],0.963
11,TFLRTYTDTMQ [TSPAN7_Y124_A127T],0.491
12,SKKSTYRALLD [GANC_Y43_Q44R],0.315
13,QLHREYCLSPR [HJURP_Y445],0.786
14,TLNVRYESVQA [CEACAM7_Y236],0.415
15,SNKLHYQLEQE [PDPR_Y110_Y109H],0.505
16,GREAEYSEKHG [EPHB4_Y574_D576E],0.487
17,AEPTGYSAELS [EZR_Y499],0.583

row,Sequence,phosphorylation enrichment
1,VHSGTYQVTVR [MYBPC3_Y1043],0.489
2,PYAEPYADYGG [APBA1_Y187_S184A],1.4
3,ARTNEYKIIRS [INA_Y87_T92S],0.372
4,FFHCTYKQRMI [CLEC12A_Y242_K244Q_YF],0.608
5,HVIKFYGACSQ [RET_Y791_L790F],0.851
6,ANNPLYKEATS [ITGB3_Y773],0.499
7,KLKNAYEESLE [MYH7_Y1488],0.445
8,EFENSYIFDIN [GAB1_Y83],0.58
9,LQIPMYEVQWK [KIT_Y553_K550I],24.1
10,PELINYHQHYS [BTK_Y361_N365Y],1.68
11,WQQQSYLASGI [CTNNB1_Y30_D32A],0.51
12,CKLCQYYLDHL [ATRX_Y1849_Y1847C],0.419
13,HKLSYCEYDFE [BTK_Y40_Y40C],1.14
14,NELTYYCYKKD [CD59_Y87_C89Y],0.826
15,PVGDVYKKKGL [NMNAT1_Y55_A54V],0.567
16,DAANNYARGHF [TUBA3E_Y103_S101N_YF],0.626

# System: AncSZ
# Assay: as above
row,Sequence,phosphorylation enrichment
1,HDRGNYVQLNM [RECQL4_Y353_R355Q],0.744
2,QGIIIYRAAYF [SLC25A4_Y187],1.32
3,LKDEDYLKDTV [HAUS3_Y582_I586T],3.63
4,EGLKVYVNGTL [ADGRD1_Y183],1.22
5,PLRADYLIARV [HLCS_Y635],0.777
6,DRLASYLDKAR [KRT14_Y129_V133A],0.586
7,GRLPEYNTPIA [CCDC151_Y542_R545P],0.704
8,SSQILYKLEQS [THADA_Y701_V699I],0.727
9,EEKSCYILHSS [PATJ_Y783_E780K],1.08
10,LEDEVCAQKMK [TPM2_Y261_Y261C],1.6
11,TFLRTYTDTMQ [TSPAN7_Y124_A127T],0.68
12,SKKSTYRALLD [GANC_Y43_Q44R],0.471
13,QLHREYCLSPR [HJURP_Y445],1.38
14,TLNVRYESVQA [CEACAM7_Y236],0.757
15,SNKLHYQLEQE [PDPR_Y110_Y109H],0.917
16,GREAEYSEKHG [EPHB4_Y574_D576E],0.681
17,AEPTGYSAELS [EZR_Y499],1.03

row,Sequence,phosphorylation enrichment
1,VHSGTYQVTVR [MYBPC3_Y1043],0.593
2,PYAEPYADYGG [APBA1_Y187_S184A],2.86
3,ARTNEYKIIRS [INA_Y87_T92S],0.435
4,FFHCTYKQRMI [CLEC12A_Y242_K244Q_YF],1.04
5,HVIKFYGACSQ [RET_Y791_L790F],1.5
6,ANNPLYKEATS [ITGB3_Y773],0.395
7,KLKNAYEESLE [MYH7_Y1488],0.982
8,EFENSYIFDIN [GAB1_Y83],1.25
9,LQIPMYEVQWK [KIT_Y553_K550I],2.5
10,PELINYHQHYS [BTK_Y361_N365Y],0.742
11,WQQQSYLASGI [CTNNB1_Y30_D32A],0.642
12,CKLCQYYLDHL [ATRX_Y1849_Y1847C],0.795
13,HKLSYCEYDFE [BTK_Y40_Y40C],1.78
14,NELTYYCYKKD [CD59_Y87_C89Y],1.81
15,PVGDVYKKKGL [NMNAT1_Y55_A54V],0.534
16,DAANNYARGHF [TUBA3E_Y103_S101N_YF],0.698

# Target: EPHB1 (UniProt P54762)
# Assay: as above
# Chain of EPHB1 (P54762 whole entry, looked up): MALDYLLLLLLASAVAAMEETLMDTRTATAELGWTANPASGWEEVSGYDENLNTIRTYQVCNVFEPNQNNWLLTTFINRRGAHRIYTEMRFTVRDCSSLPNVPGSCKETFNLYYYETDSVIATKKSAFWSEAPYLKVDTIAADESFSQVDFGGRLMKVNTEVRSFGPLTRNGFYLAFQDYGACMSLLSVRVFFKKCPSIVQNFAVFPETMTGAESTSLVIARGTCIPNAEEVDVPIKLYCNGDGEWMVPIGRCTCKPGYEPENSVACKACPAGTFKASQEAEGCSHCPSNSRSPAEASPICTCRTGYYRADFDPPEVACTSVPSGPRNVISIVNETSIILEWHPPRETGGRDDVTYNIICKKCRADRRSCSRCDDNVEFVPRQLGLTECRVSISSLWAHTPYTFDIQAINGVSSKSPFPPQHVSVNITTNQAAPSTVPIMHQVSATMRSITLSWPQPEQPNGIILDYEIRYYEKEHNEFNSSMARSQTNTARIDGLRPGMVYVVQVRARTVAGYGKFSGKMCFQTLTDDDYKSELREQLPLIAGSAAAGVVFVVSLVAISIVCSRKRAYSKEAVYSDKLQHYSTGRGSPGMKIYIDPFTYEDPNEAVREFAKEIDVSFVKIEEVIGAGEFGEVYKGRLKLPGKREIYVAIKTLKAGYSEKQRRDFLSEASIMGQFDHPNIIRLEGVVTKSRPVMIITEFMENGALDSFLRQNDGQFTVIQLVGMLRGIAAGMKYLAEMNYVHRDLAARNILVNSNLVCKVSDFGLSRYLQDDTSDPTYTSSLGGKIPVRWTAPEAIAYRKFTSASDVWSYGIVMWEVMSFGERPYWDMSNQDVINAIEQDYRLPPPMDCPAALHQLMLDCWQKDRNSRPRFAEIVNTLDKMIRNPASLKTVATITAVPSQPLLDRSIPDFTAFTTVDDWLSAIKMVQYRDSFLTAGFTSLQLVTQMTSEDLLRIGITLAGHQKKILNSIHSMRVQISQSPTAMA
row,Sequence,phosphorylation enrichment
1,HDRGNYVQLNM [RECQL4_Y353_R355Q],8.72
2,QGIIIYRAAYF [SLC25A4_Y187],0.945
3,LKDEDYLKDTV [HAUS3_Y582_I586T],1.7
4,EGLKVYVNGTL [ADGRD1_Y183],0.633
5,PLRADYLIARV [HLCS_Y635],0.312
6,DRLASYLDKAR [KRT14_Y129_V133A],0.297
7,GRLPEYNTPIA [CCDC151_Y542_R545P],0.515
8,SSQILYKLEQS [THADA_Y701_V699I],0.56
9,EEKSCYILHSS [PATJ_Y783_E780K],0.669
10,LEDEVCAQKMK [TPM2_Y261_Y261C],1.07
11,TFLRTYTDTMQ [TSPAN7_Y124_A127T],0.527
12,SKKSTYRALLD [GANC_Y43_Q44R],0.368
13,QLHREYCLSPR [HJURP_Y445],0.784
14,TLNVRYESVQA [CEACAM7_Y236],0.44
15,SNKLHYQLEQE [PDPR_Y110_Y109H],0.504
16,GREAEYSEKHG [EPHB4_Y574_D576E],0.514
17,AEPTGYSAELS [EZR_Y499],0.513

row,Sequence,phosphorylation enrichment
1,VHSGTYQVTVR [MYBPC3_Y1043],0.521
2,PYAEPYADYGG [APBA1_Y187_S184A],1.16
3,ARTNEYKIIRS [INA_Y87_T92S],0.394
4,FFHCTYKQRMI [CLEC12A_Y242_K244Q_YF],0.687
5,HVIKFYGACSQ [RET_Y791_L790F],0.956
6,ANNPLYKEATS [ITGB3_Y773],0.363
7,KLKNAYEESLE [MYH7_Y1488],0.491
8,EFENSYIFDIN [GAB1_Y83],0.435
9,LQIPMYEVQWK [KIT_Y553_K550I],22.6
10,PELINYHQHYS [BTK_Y361_N365Y],1.23
11,WQQQSYLASGI [CTNNB1_Y30_D32A],0.532
12,CKLCQYYLDHL [ATRX_Y1849_Y1847C],0.673
13,HKLSYCEYDFE [BTK_Y40_Y40C],0.857
14,NELTYYCYKKD [CD59_Y87_C89Y],0.804
15,PVGDVYKKKGL [NMNAT1_Y55_A54V],0.451
16,DAANNYARGHF [TUBA3E_Y103_S101N_YF],0.382

# — the supplement of paper PMC10065799, “High-throughput profiling of sequence recognition by tyrosine kinases and SH2 domains using bacterial peptide display” (eLife, 2023)
